The text below walks through data of paper PMC314469, “Protein Interaction Networks by Proteome Peptide Scanning” (PLoS Biology, 2004).

Test in all cases: SPOT array
The target in experiment [1] is T1, Boi1 SH3 (BOI1_YEAST), P38041.
T1 chain: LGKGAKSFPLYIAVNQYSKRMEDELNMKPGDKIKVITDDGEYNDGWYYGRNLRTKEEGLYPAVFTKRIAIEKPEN

Experiment [2] concerns the target T2, Boi2 SH3 (BOI2_YEAST), P39969.
T2 chain: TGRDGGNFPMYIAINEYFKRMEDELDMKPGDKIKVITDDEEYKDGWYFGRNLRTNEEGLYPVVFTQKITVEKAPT

For experiment [3], the target named is T3, Rvs167 SH3 (RV167_YEAST), P39743.
T3 chain: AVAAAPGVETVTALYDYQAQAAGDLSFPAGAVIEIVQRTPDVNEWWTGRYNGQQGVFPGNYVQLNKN

The target in experiment [4] is T4, Yfr024 SH3 (LSB3_YEAST), P43603.
T4 chain: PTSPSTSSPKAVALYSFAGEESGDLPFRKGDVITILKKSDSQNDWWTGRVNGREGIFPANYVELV

For experiment [5], the target named is T5, Yhr016c SH3 (YSC84_YEAST), P32793.
T5 chain: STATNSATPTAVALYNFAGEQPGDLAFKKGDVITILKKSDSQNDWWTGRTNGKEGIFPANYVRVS

With SQFPSSPYRTVDPY [YLR183C 3-16], the normalised SPOT signal, Boehringer light units (BLU); mean over the file's lines of this peptide in experiment [1] came to 72; in experiment [2], 9; in experiment [3] it was 37.5; in experiment [4], 114; in experiment [5], 330.

For SNSPSPPEKINNKR [YMR086W 654-667], the normalised SPOT signal, Boehringer light units (BLU); mean over the file's lines of this peptide turned out to be 61.1 in experiment [1]; 51.3 in experiment [2]; 47 in experiment [3]; 116 in experiment [4]; 136 in experiment [5].

With SPLPVLPRRISTHT [YMR068W 249-262], the normalised SPOT signal, Boehringer light units (BLU); mean over the file's lines of this peptide in experiment [1] was determined as 8950; in experiment [2], 40.5; in experiment [3], 19000; in experiment [4] it was 35800; in experiment [5] it was 29500.

Take SPFPSAPLRKLEIL [YIL034C 92-105]: the normalised SPOT signal, Boehringer light units (BLU); mean over the file's lines of this peptide in experiment [1] is 49.9; in experiment [2], 39.5; in experiment [3], 29.4; in experiment [4], 86; in experiment [5], 205.

With SNSPQIPKKKVKDQ [YBL004W 1825-1838], the normalised SPOT signal, Boehringer light units (BLU); mean over the file's lines of this peptide amounted to 698 in experiment [1]; 64 in experiment [2]; 34.4 in experiment [3]; 1830 in experiment [4]; 151 in experiment [5].

Regarding SNDPIPPPRKVSDV [YGR097W 457-470], the normalised SPOT signal, Boehringer light units (BLU); mean over the file's lines of this peptide turned out to be 76.6 in experiment [1]; 13.3 in experiment [2]; 161 in experiment [3]; 8060 in experiment [4]; 2640 in experiment [5].

On to SQKPQKPKKSAITK [YJR033C 1337-1350], for which the normalised SPOT signal, Boehringer light units (BLU); mean over the file's lines of this peptide in experiment [1] is 87.8; in experiment [2], 74.5; in experiment [3] it was 27; in experiment [4] it was 647; in experiment [5] it was 81.8.

Consider SMEPHSPKKAKSVE [YIL112W 773-786], for which the normalised SPOT signal, Boehringer light units (BLU); mean over the file's lines of this peptide in experiment [1] worked out at 58.3; in experiment [2], 72.7; in experiment [3] it was 85.5; in experiment [4] it was 1230; in experiment [5], 133.

As for SLSPKDPERARLLS [YMR145C 263-276], the normalised SPOT signal, Boehringer light units (BLU); mean over the file's lines of this peptide was 79 in experiment [1]; 38.1 in experiment [2]; 80.3 in experiment [3]; 97.9 in experiment [4]; 158 in experiment [5].

For the molecule SPSPLNPYRPHHNM [YNL298W 402-415], the normalised SPOT signal, Boehringer light units (BLU); mean over the file's lines of this peptide in experiment [1] is 63.4; in experiment [2], 53.9; in experiment [3], 43.7; in experiment [4], 343; in experiment [5] it was 522.

For SMSPLPPARANKSD [YLR162W 51-64], the normalised SPOT signal, Boehringer light units (BLU); mean over the file's lines of this peptide worked out at 120 in experiment [1]; 460 in experiment [2]; 2610 in experiment [3]; 16600 in experiment [4]; 17100 in experiment [5].

For SNNPSKPRKYKTKS [YIL130W 110-123], the normalised SPOT signal, Boehringer light units (BLU); mean over the file's lines of this peptide in experiment [1] stood at 74.1; in experiment [2], 35.7; in experiment [3], 42.6; in experiment [4], 307; in experiment [5], 61.8.

On to SPPPVSPSKMKTTK [YMR255W 106-119], for which the normalised SPOT signal, Boehringer light units (BLU); mean over the file's lines of this peptide in experiment [1] is 105; in experiment [2], 45.3; in experiment [3], 25.3; in experiment [4], 22.8; in experiment [5] it was 243.

Take SMTPDSPVKSDLTS [YNL233W 804-817]: the normalised SPOT signal, Boehringer light units (BLU); mean over the file's lines of this peptide is 85.9 in experiment [1]; 38.5 in experiment [2]; 31.9 in experiment [3]; 407 in experiment [4]; 533 in experiment [5].

Consider SNFPDFPLKKYLKN [YER087W 333-346], for which the normalised SPOT signal, Boehringer light units (BLU); mean over the file's lines of this peptide worked out at 59.5 in experiment [1]; 15.4 in experiment [2]; 17.9 in experiment [3]; 382 in experiment [4]; 201 in experiment [5].

For SNVPTTPSRELNGT [YNL309W 346-359], the normalised SPOT signal, Boehringer light units (BLU); mean over the file's lines of this peptide amounted to 33.2 in experiment [1]; 71.4 in experiment [2]; 37.4 in experiment [3]; 272 in experiment [4]; 210 in experiment [5].

For the molecule SNSPISPHKLIYKN [YDR216W 473-486], the normalised SPOT signal, Boehringer light units (BLU); mean over the file's lines of this peptide in experiment [1] was determined as 71.5; in experiment [2], 0; in experiment [3], 51.3; in experiment [4] it was 0; in experiment [5], 143.

Consider SMYPGLPSRLEKEL [YDL029W 307-320], for which the normalised SPOT signal, Boehringer light units (BLU); mean over the file's lines of this peptide in experiment [1] was determined as 77.3; in experiment [2], 119; in experiment [3], 815; in experiment [4] it was 6190; in experiment [5], 3680.

With SPSPSTPTKSGKMR [YKL185W 424-437], the normalised SPOT signal, Boehringer light units (BLU); mean over the file's lines of this peptide in experiment [1] was 278; in experiment [2] it was 52.9; in experiment [3], 35.3; in experiment [4] it was 302; in experiment [5] it was 150.
